Measurements: paper PMC7641760, “Evolution of a highly functional circular DNA aptamer in serum”

B1: CTBA4T-B1 (structured_DNA)
DNA: ATCTCGAGTCATAGGGGGCGCGAACATACGCGGTTGGTGTGGTTGGCTGACTCGT
modifications: circular (5'-3' ligated)
B2: CTBA4T (structured_DNA)
DNA: ATCTCGACTAGTCATAGGGGGCGCGAACATACGCGGTTGGTGTGGTTGGCTGACAATACTCGT
modifications: circular (5'-3' ligated)
B3: CTBA4T (structured_DNA)
DNA: ATCTCGACTAGTCATAGGGGGCGCGAACATACGCGGTTGGTGTGGTTGGCTGACAATACTCGT
modifications: circular (3'-5' ligated)

Key:
human alpha-thrombin [1] = target: T1, human alpha-thrombin (Homo sapiens, UniProt P00734;P00734 328-363;364-622); assay: EMSA; EMSA: 1x binding buffer (PBSMT pH 7.2: 137 mM NaCl, 2.68 mM KCl, 8.1 mM Na2HPO4, 1.76 mM KH2PO4, 1 mM MgCl2, 0.025% Tween-20), <50 pM 32P-DNA, 30 min; gel 10% n
[2] = target: alpha-thrombin (light; heavy chain) (Homo sapiens (Human), UniProt P00734;P00734 328-363;364-622, N-glycosylated (plasma); interchain disulfide); assay: EMSA; PBS pH 7.2, 1 mM MgCl2, 0.025% Tween-20; DNA <50 pM; conditions: copies: 1;1; label: 32P
human alpha-thrombin [3] = target: T1, human alpha-thrombin; assay: competition; displaces 32P-CTBA4T (500 pM, thrombin 50 pM) at high concentration; exosite I; EMSA: 1x binding buffer (PBSMT pH 7.2: 137 mM NaCl, 2.68 mM KCl, 8.1 mM Na2HPO4, 1.76 mM KH2PO4, 1 mM MgCl2, 0.025% Tween-20), <50 pM 32P-DNA, 30 min; gel 10% n

Binder | Kd (human alpha-thrombin [1]) [nM] | further results
B1 | 0.019 | –
B2 | 0.023 | –
B3 | – | Kd [2]: 0.023 nM
GGTTGGTGTGGTTGG (structured_DNA) [TBA15] | – | binding result (human alpha-thrombin [3]): binds
